Non-standard residues stand in square brackets, D forms with d. No end group written: not given here. pY = N[C@@H](Cc1ccc(OP(=O)(O)O)cc1)C(=O)O
B1: DUSP3-WT (dual-specificity phosphatase 3) (enzyme, UniProt P51452 1-185, looked up)
chain: MSGSFELSVQDLNDLLSDGSGCYSLPSQPCNEVTPRIYVGNASVAQDIPKLQKLGITHVLNAAEGRSFMHVNTNANFYKDSGITYLGIKANDTQEFNLSAYFERAADFIDQALAQKNGRVLVHCREGYSRSPTLVIAYLMMRQKMDVKSALSIVRQNREIGPNDGFLAQLCQLNDRLAKEGKLKP
notes: DUSP3 (VHR), wild type, cDNA in pGEX-4T2 (Torres et al., 2017); Immobilised on a CM5 sensorchip; also called VHR; vaccinia virus H1-related phosphatase; source: E. coli BL-21 (DE3), purified (Glutathione-Sepharose 4B; GST removed by thrombin)

Legend:
[1] = molecular target: B1; assay: SPR; Biacore T100; DUSP3-WT immobilised on CM5 sensorchip (3,000 RU); peptides 5-40 μM in HBS-N buffer; 25°C, 120 s association, 300 s dissociation, 10 μl/min; three independent experiments; details: both partners purified
ERK1 = molecular target: T1, ERK1 (UniProt P27361 1-379); assay: SPR; Biacore T100; DUSP3-WT or DUSP3-C124S immobilised on CM5 sensorchip (200 RU); protein analytes 12.5-1,000 nM; kinetic assays at 25°C, HBS-EP buffer, 10 μl/min, 120 s association, 300 s dissociation; three independent experiments; details: both partners purified
T1 construct: ERK1, cDNA in pGEX-4T2 donated by Prof; Rony Seger; The sentence on purification and on removal of GST names DUSP3 and NPM full length but not ERK1; source: E. coli BL-21 (DE3), purified recombinant protein
T1 sequence (P27361 whole entry): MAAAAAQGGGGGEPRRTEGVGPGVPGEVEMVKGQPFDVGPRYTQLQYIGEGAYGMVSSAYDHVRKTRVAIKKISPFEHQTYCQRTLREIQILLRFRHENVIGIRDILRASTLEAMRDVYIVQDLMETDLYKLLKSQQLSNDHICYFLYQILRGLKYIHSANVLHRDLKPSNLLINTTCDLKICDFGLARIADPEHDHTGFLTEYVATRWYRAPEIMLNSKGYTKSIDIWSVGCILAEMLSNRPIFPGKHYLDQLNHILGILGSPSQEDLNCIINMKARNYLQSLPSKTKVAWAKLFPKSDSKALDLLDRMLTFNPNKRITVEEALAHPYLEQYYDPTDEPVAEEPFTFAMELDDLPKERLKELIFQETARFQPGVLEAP

Binder	Kd [1] [nM]	Kd (ERK1) [nM]
AMN[pY]EGSPIK (Stretch of nucleophosmin around Y67; source: synthetic peptide, bought: Chinese Peptide Company) [phospho-Y-decapeptide p-NPM(Y67)]	2010	–
SPLRPQN[pY]L (Stretch of nucleophosmin around Y17; source: synthetic peptide, bought: Chinese Peptide Company) [phospho-Y-decapeptide p-NPM(Y17)]	1620	–
B1	–	178
DUSP3-C124S mutant (phosphatase dead) (enzyme, UniProt P51452 1-185, looked up, DUSP3 (VHR) with the catalytic cysteine 124 substituted by serine, cDNA in pGEX-4T2 (Torres et al., 2017); Immobilised on a CM5 sensorchip; source: E. coli BL-21 (DE3), purified (Glutathione-Sepharose 4B; GST removed by thrombin)) MSGSFELSVQDLNDLLSDGSGCYSLPSQPCNEVTPRIYVGNASVAQDIPKLQKLGITHVLNAAEGRSFMHVNTNANFYKDSGITYLGIKANDTQEFNLSAYFERAADFIDQALAQKNGRVLVHSREGYSRSPTLVIAYLMMRQKMDVKSALSIVRQNREIGPNDGFLAQLCQLNDRLAKEGKLKP	–	130
ADKD[pY]HFKVD (Stretch of nucleophosmin around Y29; source: synthetic peptide, bought: Chinese Peptide Company) [phospho-Y-decapeptide p-NPM(Y29)]	2340	–
EAKFIN[pY]VKN (Stretch of nucleophosmin around Y271; source: synthetic peptide, bought: Chinese Peptide Company) [phospho-Y-decapeptide p-NPM(Y271)]	2070	–

Reference: publication PMC7991746, “Nucleophosmin Protein Dephosphorylation by DUSP3 Is a Fine-Tuning Regulator of p53 Signaling to Maintain Genomic Stability” (Frontiers in Cell and Developmental Biology, 2021)
